Source: PMC3108429

Legend:
[1] = target: taxol-stabilized microtubules; test: bead binding to microtubules counted by DIC microscopy
[2] = target: dynamic microtubules grown from GMPCPP-stabilized microtubule seeds (bovine); test: constant-force laser trap bead motility assay

microtubule-bound beads per field (beads per field) [1] | mean attachment lifetime at 1 pN tension [2] [min] | mean attachment lifetime at 5 pN tension [2] [min] | Substance
18 | – | – | Dsn1-HIS-FLAG kinetochore particles from the dad1-1 mutant strain (from UniProt P40568 1-576; Q12248 1-94) (complex)
2 | – | – | Dsn1-HIS-FLAG kinetochore particles from the ndc80-1 mutant strain (from UniProt P40568 1-576; P40460 1-691) (complex)
4 | – | – | Dsn1-HIS-FLAG kinetochore particles from the spc105-15 mutant strain (from UniProt P40568 1-576; P53148 1-917) (complex)
22 | 21 | 50 | Dsn1-HIS-FLAG kinetochore particles from wild-type cells (from UniProt P40568 1-576) (complex)
